Laboratory results reported in US20240092867A1 (UNIVERSITY OF CHICAGO, published 2024).

Experiments:
[1] = target: T1, recombinant human vWF A2 domain (human, UniProt P04275 1498-1665); assay: ELISA, domain coated 50 nM
T1 construct: domain: A2
Description: (§1) ELISA was performed as previously reported1. […] After blocking with 2% BSA solution containing PBS-T, 1 μg/mL of recombinant human VEGF-A121 (PeproTech), recombinant human VEGF-A145 (R & D Systems), or recombinant human VEGF-A165 (PeproTech) was added. Bound VEGF-A was detected with 1 μg/mL of mouse anti-human VEGF-A antibody (clone: 26503, R & D systems). After 60 min of incubation, horseradish peroxidase (HRP) conjugated goat anti-mouse antibody (1:2000 dilution, Dako) was added and incubated for another 60 min. Color development and the absorbance measurement were done as described above.

[2] = target: T2, recombinant human vWF A3 domain (human, UniProt P04275 1683-1874); assay: ELISA, domain coated 50 nM
T2 construct: domain: A3
Description: as §1

human plasma-derived vWF [3] = target: T3, human plasma-derived vWF (human, UniProt P04275 764-2813); assay: SPR, vWF immobilised, GF flowed, 1:1 Langmuir fit
T3 construct: mature; also called plasma-derived purified vWF; von Willebrand factor
Description: (§2) A450 nm represents absorbance at 450 nm. Signals from VEGF-A121 served as a baseline, and bovine serum albumin (BSA) served as a negative control (n=4, mean±SD). […] Experimental curves were fitted with (C) 1:1 Langmuir fit model and (D) heterogeneous ligand-parallel reactions binding.
(§3) SPR assays were performed as described previously2. In brief, measurements were made with a Biacore X100 SPR system or Biacore 3000 SPR system (GE Healthcare). […] Recombinant human VEGF-A165, VEGF-A121, or PDGF-BB was flowed at increasing concentrations in the running buffer at 30 μL/min. The sensor chip was regenerated with glycine at pH 2 for every cycle.

[4] = target: T4, recombinant laminin α3 2928-3150 protein (linker domain and LG4 domain) (human, UniProt Q16787 2928-3150); assay: SPR, α3 2928-3150 immobilised, GF flowed, Langmuir fit
T4 construct: range 2928-3150; Made in HEK-293F cells; also called laminin alpha 3 LG domain recombinant protein
T4 sequence: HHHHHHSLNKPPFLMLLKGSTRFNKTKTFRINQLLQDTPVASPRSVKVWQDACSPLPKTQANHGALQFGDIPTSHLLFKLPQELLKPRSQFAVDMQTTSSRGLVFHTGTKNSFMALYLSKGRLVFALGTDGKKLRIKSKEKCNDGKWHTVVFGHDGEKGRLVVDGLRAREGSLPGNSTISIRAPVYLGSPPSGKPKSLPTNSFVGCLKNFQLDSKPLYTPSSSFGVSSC
Description: Affinity of GFs against recombinant laminin LG domains. ELISA plates were coated with 1 μg/mL (A) α3₂₉₂₈₋₃₁₅₀, (B) α4₈₂₆₋₁₈₁₆, or (C) α5₃₀₂₆₋₃₄₈₂ and further incubated with 1 μg/mL of VEGF-A165, VEGF-A121, PlGF-2, PlGF-1, PDGF-BB, or FGF-2 solution. Bound GFs were detected using a specific antibody for each GF (n=4, mean±SEM). Statistical analyses were done using the Mann-Whitney U test by comparing the signals obtained from the laminin domain- and the BSA-coated wells. *p<0.05, **p<0.01. […] A SPR chip was functionalized with the laminin α3₂₉₂₈₋₃₁₅₀ recombinant protein (˜1000 RU), and each GF was flowed over the chip at indicated concentrations. Curves represent the specific responses (in RU) to laminin. Experimental curves were fitted with Langmuir binding kinetics.
(§4) Because the GFs that bound to laminins have also been previously reported to bind to other ECM glycoproteins through HBDs, it was hypothesized that HBDs of laminins might be responsible for the interactions between GFs and laminin. To address this hypothesis, ELISA assays were repeated for VEGF-A165, PlGF-2 or FGF-2 in the presence of heparin added in excess (10 μM). […] To further confirm this, the inventors tested direct GF binding to the LG domains from human laminin α3, α4 and α5, within which HBDs of laminin were localized.
SPR analysis was performed as described previously². […]

human plasma-derived vWF [5] = target: T3, human plasma-derived vWF; assay: SPR; plasma-derived vWF immobilised (~2000 RU), VEGF-A165 flowed at 6.25-100 nM; 1:1 Langmuir fit [panel C]
Description: as §2, §3

laminin-111 = target: T5, laminin-111 (human, UniProt P25391 18-3075; P07942 22-1786; P11047 34-1609); assay: ELISA; plate coated with 10 µg/mL laminin, 1 µg/mL VEGF-A165 in solution without or with 10 µM heparin, bound GF detected with antibody [panel A]
T5 construct: Full-length recombinant human laminin isoform (BioLamina); Chain composition is read from the isoform name
Description: (§5) FIGS. 2A-C. […] ELISA plates were coated with 10 μg/mL laminin and further incubated with a 1 μg/mL (A) VEGF-A165, (B) PlGF-2, or (C) FGF-2 solution in the absence or presence of excess (10 μM) heparin. Bound GFs were detected using a specific antibody for each GF (n=4, mean±SEM). Statistical analyses were done using the Mann-Whitney U test by comparing the signals with and without heparin. *p<0.05, **p<0.01.
as §4

laminin-211 = target: T6, laminin-211 (human, UniProt P24043 23-3122; P07942 22-1786; P11047 34-1609); assay: as above
T6 construct: Full-length recombinant human laminin isoform (BioLamina); chains read from the isoform name
Description: as §5, §4

laminin-411 = target: T7, laminin-411 (human, UniProt Q16363 25-1823; P07942 22-1786; P11047 34-1609); assay: as above
T7 construct: Full-length recombinant human laminin isoform (BioLamina); chains read from the isoform name
T7 sequence (Q16363 25-1823 limits assumed, chain 1 of 3): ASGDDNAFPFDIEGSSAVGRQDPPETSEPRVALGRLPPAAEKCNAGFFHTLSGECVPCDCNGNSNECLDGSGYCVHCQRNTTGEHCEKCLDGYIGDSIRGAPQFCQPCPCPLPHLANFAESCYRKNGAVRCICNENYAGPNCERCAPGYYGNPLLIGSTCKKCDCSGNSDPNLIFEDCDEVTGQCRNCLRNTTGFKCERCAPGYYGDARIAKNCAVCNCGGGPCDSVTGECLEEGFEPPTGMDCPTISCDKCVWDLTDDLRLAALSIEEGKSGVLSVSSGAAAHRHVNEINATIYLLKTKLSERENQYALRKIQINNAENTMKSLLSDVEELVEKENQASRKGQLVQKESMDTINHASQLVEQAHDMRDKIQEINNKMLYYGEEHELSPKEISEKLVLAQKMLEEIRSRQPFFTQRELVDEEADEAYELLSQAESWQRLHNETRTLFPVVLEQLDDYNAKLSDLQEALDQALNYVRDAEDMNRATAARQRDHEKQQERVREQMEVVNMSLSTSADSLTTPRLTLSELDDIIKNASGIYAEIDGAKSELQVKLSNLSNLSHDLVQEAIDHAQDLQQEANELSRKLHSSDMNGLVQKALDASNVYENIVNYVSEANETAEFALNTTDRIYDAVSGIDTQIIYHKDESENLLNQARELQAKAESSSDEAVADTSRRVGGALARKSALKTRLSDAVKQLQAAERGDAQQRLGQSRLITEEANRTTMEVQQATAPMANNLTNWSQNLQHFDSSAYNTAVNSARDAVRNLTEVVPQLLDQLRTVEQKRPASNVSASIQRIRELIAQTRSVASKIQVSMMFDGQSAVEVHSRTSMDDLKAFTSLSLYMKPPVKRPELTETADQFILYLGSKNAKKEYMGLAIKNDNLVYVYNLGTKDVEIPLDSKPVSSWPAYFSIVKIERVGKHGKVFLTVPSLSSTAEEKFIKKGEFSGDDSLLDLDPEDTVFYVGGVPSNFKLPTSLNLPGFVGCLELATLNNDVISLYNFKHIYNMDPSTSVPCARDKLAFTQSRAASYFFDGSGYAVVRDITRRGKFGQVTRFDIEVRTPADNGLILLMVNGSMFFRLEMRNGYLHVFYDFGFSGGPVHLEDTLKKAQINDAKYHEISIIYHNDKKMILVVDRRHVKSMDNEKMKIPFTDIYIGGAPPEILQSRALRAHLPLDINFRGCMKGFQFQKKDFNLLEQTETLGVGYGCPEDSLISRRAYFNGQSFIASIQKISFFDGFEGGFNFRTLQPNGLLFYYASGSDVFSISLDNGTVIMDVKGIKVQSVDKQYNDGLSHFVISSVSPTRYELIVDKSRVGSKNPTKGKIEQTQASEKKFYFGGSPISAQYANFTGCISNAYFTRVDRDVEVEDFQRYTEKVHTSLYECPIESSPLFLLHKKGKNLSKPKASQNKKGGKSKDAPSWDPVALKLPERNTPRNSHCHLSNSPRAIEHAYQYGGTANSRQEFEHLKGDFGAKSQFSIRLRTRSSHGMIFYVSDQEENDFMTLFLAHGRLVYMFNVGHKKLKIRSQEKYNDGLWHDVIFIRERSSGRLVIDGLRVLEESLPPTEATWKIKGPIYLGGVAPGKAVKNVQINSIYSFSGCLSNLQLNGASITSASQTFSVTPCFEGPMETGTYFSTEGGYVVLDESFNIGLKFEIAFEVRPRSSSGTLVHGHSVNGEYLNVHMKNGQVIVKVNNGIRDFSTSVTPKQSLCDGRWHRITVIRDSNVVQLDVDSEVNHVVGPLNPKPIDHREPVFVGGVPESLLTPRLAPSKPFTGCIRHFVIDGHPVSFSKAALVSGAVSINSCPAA
T7 sequence (P07942 22-1786 limits assumed, chain 2 of 3): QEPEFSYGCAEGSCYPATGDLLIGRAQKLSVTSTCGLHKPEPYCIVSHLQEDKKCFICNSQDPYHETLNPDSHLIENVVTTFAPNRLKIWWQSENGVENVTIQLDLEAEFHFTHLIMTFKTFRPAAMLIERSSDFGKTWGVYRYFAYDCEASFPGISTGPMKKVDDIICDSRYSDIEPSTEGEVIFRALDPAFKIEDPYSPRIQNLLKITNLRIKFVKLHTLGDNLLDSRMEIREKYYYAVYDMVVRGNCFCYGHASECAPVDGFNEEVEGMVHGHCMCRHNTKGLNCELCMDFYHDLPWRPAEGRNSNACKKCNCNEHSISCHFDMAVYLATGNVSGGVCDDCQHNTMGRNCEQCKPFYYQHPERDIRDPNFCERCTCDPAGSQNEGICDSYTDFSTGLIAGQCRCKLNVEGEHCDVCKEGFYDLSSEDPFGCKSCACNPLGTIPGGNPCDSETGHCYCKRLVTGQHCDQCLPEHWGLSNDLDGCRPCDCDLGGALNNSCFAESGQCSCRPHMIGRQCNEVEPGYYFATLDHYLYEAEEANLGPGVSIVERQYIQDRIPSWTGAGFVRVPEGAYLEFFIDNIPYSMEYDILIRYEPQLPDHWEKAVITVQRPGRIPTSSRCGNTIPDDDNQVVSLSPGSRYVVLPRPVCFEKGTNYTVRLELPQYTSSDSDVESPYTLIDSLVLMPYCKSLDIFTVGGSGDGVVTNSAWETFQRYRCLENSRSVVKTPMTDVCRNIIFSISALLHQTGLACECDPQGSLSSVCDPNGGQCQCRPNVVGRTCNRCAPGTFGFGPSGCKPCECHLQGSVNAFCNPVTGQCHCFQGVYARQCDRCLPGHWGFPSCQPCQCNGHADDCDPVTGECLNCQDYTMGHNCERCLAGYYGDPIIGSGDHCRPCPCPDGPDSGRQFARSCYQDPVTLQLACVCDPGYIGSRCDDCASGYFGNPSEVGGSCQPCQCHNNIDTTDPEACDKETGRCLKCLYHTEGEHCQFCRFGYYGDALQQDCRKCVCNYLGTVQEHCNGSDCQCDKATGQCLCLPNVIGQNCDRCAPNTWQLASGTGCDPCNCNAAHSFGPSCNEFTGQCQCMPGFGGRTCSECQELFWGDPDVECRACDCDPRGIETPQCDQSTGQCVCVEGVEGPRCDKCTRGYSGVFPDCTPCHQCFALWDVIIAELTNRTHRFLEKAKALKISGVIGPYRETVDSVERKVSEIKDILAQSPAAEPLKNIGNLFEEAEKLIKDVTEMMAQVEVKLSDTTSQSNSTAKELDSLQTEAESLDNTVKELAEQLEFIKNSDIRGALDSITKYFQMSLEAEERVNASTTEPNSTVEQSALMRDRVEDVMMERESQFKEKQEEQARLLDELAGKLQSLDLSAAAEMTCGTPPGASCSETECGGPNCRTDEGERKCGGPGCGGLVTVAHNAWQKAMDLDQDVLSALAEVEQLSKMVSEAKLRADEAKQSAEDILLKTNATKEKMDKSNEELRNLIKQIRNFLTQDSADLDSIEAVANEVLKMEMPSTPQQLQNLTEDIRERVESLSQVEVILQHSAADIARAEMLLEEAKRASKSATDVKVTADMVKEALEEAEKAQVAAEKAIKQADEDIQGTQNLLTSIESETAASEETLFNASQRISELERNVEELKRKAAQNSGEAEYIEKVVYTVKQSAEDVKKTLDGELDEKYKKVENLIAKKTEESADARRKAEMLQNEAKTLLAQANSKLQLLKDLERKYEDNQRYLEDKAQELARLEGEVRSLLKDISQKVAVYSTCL
T7 sequence (P11047 34-1609 limits assumed, chain 3 of 3): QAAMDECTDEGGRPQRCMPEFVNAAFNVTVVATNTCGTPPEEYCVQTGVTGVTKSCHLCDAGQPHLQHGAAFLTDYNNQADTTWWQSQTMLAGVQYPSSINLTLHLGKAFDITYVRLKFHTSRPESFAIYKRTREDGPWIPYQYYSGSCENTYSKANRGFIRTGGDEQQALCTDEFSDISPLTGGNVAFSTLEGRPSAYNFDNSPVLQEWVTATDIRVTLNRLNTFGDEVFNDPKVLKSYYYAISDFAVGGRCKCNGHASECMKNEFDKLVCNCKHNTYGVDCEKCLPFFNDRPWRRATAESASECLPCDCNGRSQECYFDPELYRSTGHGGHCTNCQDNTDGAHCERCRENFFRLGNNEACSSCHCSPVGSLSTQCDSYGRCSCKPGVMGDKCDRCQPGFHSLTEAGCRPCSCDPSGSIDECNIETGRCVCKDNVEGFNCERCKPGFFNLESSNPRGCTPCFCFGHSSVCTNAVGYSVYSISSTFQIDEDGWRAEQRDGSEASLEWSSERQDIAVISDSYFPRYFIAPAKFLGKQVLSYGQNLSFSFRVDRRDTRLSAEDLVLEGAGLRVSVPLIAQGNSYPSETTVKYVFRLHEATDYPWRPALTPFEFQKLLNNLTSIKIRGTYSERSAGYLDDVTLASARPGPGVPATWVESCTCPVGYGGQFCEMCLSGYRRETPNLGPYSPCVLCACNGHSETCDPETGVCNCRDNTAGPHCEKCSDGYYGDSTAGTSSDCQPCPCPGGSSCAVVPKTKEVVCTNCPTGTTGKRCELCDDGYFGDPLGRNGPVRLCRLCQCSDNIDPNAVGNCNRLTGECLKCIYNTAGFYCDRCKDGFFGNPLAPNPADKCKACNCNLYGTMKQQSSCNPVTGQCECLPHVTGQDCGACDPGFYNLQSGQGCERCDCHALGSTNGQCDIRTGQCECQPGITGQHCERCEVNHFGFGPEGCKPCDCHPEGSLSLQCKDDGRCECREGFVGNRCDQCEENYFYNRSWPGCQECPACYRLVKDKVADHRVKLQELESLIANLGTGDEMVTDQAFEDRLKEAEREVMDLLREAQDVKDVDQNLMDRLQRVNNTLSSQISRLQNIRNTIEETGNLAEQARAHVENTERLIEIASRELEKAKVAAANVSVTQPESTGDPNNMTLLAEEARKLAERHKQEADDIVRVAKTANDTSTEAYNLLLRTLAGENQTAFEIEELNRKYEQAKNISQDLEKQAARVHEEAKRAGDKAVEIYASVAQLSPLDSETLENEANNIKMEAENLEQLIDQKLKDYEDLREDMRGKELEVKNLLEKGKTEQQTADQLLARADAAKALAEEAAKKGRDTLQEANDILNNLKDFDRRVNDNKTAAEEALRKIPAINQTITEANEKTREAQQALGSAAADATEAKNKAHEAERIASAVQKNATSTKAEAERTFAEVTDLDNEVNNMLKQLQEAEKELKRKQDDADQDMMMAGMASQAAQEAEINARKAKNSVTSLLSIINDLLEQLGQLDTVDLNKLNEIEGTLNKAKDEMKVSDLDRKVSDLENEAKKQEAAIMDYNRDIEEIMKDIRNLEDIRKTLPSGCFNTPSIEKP
Description: as §5, §4

laminin-421 = target: T8, laminin-421 (human, UniProt Q16363 25-1823; P55268 33-1798; P11047 34-1609); assay: as above
T8 construct: Full-length recombinant human laminin isoform (BioLamina); chains read from the isoform name
Description: as §5, §4

binding result [1]: no binding (tested: 1 µg/mL)
binding result [2]: no binding (tested: 1 µg/mL)
Kd (human plasma-derived vWF [3]): 27 nM
Kd [4]: 1.2 nM
Kd (human plasma-derived vWF [5]): 27.4 nM
binding result (laminin-111): binds
binding result (laminin-211): binds
binding result (laminin-411): binds
binding result (laminin-421): binds
B1: vascular endothelial growth factor (VEGF)-A165 (ligand, human, UniProt P15692-4 27-191, looked up)
chain: APMAEGGGQNHHEVVKFMDVYQRSYCHPIETLVDIFQEYPDEIEYIFKPSCVPLMRCGGCCNDEGLECVPTEESNITMQIMRIKPHQGQHIGEMSFLQHNKCECRPKKDRARQENPCGPCSERRKHLFVQDPQTCKCSCKNTDSRCKARQLELNERTCRCDKPRR
notes: mature; Purchased in mature form, not glycosylated
